Where “and” joins values, the source holds several entries; their conditions need not be identical. Equal entries are not always repeated. Blank lines part the entries; values can stand above or below the binder they belong to.
Tests used:
Human CLEC12A-His [1] = molecular target: T1, Human CLEC12A-His (human, UniProt Q5QGZ9 65-265); test: SPR Biacore 8K 37 C; TriNKET captured on anti-hFc chip, hCLEC12A-His as analyte; classical 1:1 fit
T1 construct: Recombinant soluble protein made in house (Dragonfly Tx); The hCLEC12A spot of the HuProt array is written under this molecule as well; also called hCLEC12A-His; hCLEC12A; not shown: His tag
T1 sequence: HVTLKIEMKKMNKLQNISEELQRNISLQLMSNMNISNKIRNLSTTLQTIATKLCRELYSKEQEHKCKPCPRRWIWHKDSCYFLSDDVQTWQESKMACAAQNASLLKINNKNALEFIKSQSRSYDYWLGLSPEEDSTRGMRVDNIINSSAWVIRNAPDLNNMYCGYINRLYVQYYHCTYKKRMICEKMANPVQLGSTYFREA

mFc-cNKG2D = molecular target: T2, mFc-cNKG2D (cynomolgus monkey, UniProt P61252 73-216); test: SPR Biacore 37 C; mFc-tagged cyno NKG2D dimer, TriNKET as analyte; steady state affinity fit; average of 4
T2 construct: extracellular domain; Made in house (Dragonfly Tx); also called recombinant cyno NKG2D extracellular domain (ECD); mFc-tagged cyno NKG2D dimer; not shown: mouse Fc tag
T2 sequence (looked up): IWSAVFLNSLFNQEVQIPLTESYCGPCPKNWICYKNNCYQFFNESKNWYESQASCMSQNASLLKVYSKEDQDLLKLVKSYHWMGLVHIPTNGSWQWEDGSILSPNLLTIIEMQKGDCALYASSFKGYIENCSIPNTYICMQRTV

Human CLEC12A-His [2] = molecular target: T1, Human CLEC12A-His; test: SPR Biacore 8K 37 C; TriNKET captured on anti-hFc chip, hCLEC12A-His as analyte; 1:1 fit; after 4 wks 25 C in CST pH 7.0, n=2
Human CD16a F158 = molecular target: T3, Human CD16a F158 (human, UniProt P08637 17-208, biotinylated); test: SPR, steady state fit
T3 construct: Bought recombinant receptor; also called hFcγRIIIa F158

Cynomolgus CD16 = molecular target: T4, Cynomolgus CD16 (cynomolgus monkey, UniProt Q8SPW2 17-208, biotinylated); test: SPR, steady state fit
T4 construct: Bought recombinant receptor; also called cFcγRIII; Cynomolgus FcγRIII

[3] = molecular target: T5, human CLEC12A on cells (HL60, PL21, Ba/F3-hCLEC12A) (human, UniProt Q5QGZ9 1-265); test: flow cytometry, HL60 cells
T5 construct: Endogenous on the AML lines HL60 and PL21; brought into mouse Ba/F3 cells by retroviral transduction; The cell line stands under assay; also called CLL-1
T5 sequence: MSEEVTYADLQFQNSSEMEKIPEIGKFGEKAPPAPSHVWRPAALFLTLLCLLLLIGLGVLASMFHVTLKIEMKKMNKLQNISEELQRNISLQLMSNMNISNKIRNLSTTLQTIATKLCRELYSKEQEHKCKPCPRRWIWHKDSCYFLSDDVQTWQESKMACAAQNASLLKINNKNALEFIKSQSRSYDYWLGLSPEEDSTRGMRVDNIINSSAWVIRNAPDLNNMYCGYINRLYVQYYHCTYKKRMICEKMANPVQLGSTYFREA

Human CLEC12A-His [4] = molecular target: T6, Human CLEC12A-His (human, UniProt Q5QGZ9 65-265); test: SPR; taken as the sample after forced oxidation (0.02% H2O2, 24 h)
T6 construct: Recombinant soluble protein made in house; also called hCLEC12A-His; hCLEC12A; not shown: His tag
T6 sequence: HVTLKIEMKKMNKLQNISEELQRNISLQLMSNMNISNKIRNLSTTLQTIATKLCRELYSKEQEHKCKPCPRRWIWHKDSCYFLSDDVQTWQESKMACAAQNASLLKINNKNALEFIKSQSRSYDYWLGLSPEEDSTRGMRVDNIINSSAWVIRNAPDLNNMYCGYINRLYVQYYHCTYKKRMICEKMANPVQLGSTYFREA

[5] = molecular target: T7, recombinant human CLEC12A-His (human, UniProt Q5QGZ9 65-265); test: SPR 37C
T7 construct: also called hCLEC12A-His; hCLEC12A
T7 sequence: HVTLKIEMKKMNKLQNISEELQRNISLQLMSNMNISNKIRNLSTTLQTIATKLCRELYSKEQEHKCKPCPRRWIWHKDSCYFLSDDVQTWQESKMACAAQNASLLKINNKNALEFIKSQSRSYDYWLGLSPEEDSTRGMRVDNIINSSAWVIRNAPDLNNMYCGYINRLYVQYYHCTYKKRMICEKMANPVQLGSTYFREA

[6] = molecular target: T8, human CLEC12A expressed on cells (human, UniProt Q5QGZ9 1-265); test: flow cytometry, hCLEC12A+ Ba/F3
T8 construct: Transduced isogenic cells or endogenous expression on AML cells; also called RMA-hCLEC12A; Ba/F3-hCLEC12A
T8 sequence: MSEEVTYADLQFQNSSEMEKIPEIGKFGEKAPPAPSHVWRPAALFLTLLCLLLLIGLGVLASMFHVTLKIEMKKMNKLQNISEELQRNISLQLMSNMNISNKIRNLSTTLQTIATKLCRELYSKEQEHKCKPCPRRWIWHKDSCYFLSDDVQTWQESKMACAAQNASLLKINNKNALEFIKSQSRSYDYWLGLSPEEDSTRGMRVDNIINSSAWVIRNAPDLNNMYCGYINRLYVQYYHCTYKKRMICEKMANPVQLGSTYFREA

[7] = molecular target: T9, recombinant cynomolgus FcRn (cynomolgus monkey, UniProt Q8SPV9 24-297; Q8SPW0 21-119); test: SPR 25C, pH 6.0, steady state; pH 6.0; third replicate
T9 construct: also called cFcRn; cyno FcRn

[8] = molecular target: T9, recombinant cynomolgus FcRn; test: SPR 25C, pH 6.0, steady state; pH 6.0; fourth replicate

T4 sequence (Q8SPW2 17-208 limits assumed): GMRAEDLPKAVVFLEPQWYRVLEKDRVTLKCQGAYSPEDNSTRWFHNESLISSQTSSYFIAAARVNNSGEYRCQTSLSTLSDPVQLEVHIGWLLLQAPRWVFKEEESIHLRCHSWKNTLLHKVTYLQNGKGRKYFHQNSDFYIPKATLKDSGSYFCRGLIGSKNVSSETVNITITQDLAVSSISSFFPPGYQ
T3 sequence (P08637 17-208 limits assumed): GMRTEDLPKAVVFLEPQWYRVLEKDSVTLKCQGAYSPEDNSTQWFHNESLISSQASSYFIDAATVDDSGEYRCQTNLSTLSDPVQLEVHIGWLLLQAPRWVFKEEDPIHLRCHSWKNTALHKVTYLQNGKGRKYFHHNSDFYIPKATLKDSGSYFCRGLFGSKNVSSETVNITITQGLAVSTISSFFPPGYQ
T9 sequence (Q8SPV9 24-297 limits assumed, chain 1 of 2): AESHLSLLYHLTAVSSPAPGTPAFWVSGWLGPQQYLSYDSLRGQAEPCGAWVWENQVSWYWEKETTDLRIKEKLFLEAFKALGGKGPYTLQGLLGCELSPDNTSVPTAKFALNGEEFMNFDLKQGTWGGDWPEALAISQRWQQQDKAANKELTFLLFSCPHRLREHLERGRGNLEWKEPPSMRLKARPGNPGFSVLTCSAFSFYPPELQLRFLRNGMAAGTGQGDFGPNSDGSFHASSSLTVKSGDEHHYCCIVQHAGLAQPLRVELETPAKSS
T9 sequence (Q8SPW0 21-119 limits assumed, chain 2 of 2): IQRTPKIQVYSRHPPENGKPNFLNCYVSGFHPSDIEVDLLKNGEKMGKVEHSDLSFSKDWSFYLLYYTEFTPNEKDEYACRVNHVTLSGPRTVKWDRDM

Kd (Human CLEC12A-His [1]): 0.8 nM
koff (Human CLEC12A-His [1]): 0.000895 s⁻¹
kon (Human CLEC12A-His [1]): 1.11e+06 M⁻¹ s⁻¹
Kd (mFc-cNKG2D): 828 nM
Kd (Human CLEC12A-His [2]): 0.91 nM
koff (Human CLEC12A-His [2]): 0.000719 s⁻¹
kon (Human CLEC12A-His [2]): 788000 M⁻¹ s⁻¹
B1: F3'-1602 TriNKET (bispecific antibody, human IgG1, kappa)
chain: QLQLQESGPGLVKPSETLSLTCTVSGFSLTNYGLHWIRQPPGKCLEWIGVIWSGGKTDYNPSLKSRVTISKDTSKNQFSLKLSSVQAADTAVYYCAKYDYDDSLDYWGQGTLVTVSSGGGGSGGGGSGGGGSGGGGSDIQMTQSPSSLSASVGDRVTITCHASQNINFWLSWYQQKPGKAPKLLIYEASNLHTGVPSRFSGSGSGTRFTLTISSLQPEDIATYYCQQSHSYPLTFGCGTKLEIKGSDKTHTCPPCPAPELLGGPSVFLFPPKPKDTLMISRTPEVTCVVVDVSHEDPEVKFNWYVDGVEVHNAKTKPREEQYNSTYRVVSVLTVLHQDWLNGKEYKCKVSNKALPAPIEKTISKAKGQPREPRVYTLPPCRDELTKNQVSLTCLVKGFYPSDIAVEWESNGQPENNYKTTPPVLVSDGSFTLYSKLTVDKSRWQQGNVFSCSVMHEALHNHYTQKSLSLSPG
heavy: EVQLVESGGGLVKPGGSLRLSCAASGFTFSSYSMNWVRQAPGKGLEWVSSISSSSSYIYYADSVKGRFTISRDNAKNSLYLQMNSLRAEDTAVYYCARGAPIGAAAGWFDPWGQGTLVTVSSASTKGPSVFPLAPSSKSTSGGTAALGCLVKDYFPEPVTVSWNSGALTSGVHTFPAVLQSSGLYSLSSVVTVPSSSLGTQTYICNVNHKPSNTKVDKKVEPKSCDKTHTCPPCPAPELLGGPSVFLFPPKPKDTLMISRTPEVTCVVVDVSHEDPEVKFNWYVDGVEVHNAKTKPREEQYNSTYRVVSVLTVLHQDWLNGKEYKCKVSNKALPAPIEKTISKAKGQPREPQVCTLPPSRDELTENQVSLTCLVKGFYPSDIAVEWESNGQPENNYKTTPPVLDSDGSFFLYSWLTVDKSRWQQGNVFSCSVMHEALHNHYTQKSLSLSPG
light: DIQMTQSPSSVSASVGDRVTITCRASQGISSWLAWYQQKPGKAPKLLIYAASSLQSGVPSRFSGSGSGTDFTLTISSLQPEDFATYYCQQGVSFPRTFGGGTKVEIKRTVAAPSVFIFPPSDEQLKSGTASVVCLLNNFYPREAKVQWKVDNALQSGNSQESVTEQDSKDSTYSLSSTLTLSKADYEKHKVYACEVTHQGLSSPVTKSFNRGEC
notes: Trispecific F3' format: CLEC12A scFv-Fc paired with NKG2D Fab-Fc; Stressed and control samples of the stability studies are the same molecule; also called AB0237

Kd (Human CD16a F158): 773 nM and 634 nM and 693 nM and 620 nM
Kd (Cynomolgus CD16): 203 nM and 205 nM and 204 nM
EC50 [3]: 0.61 nM
FOB (fold over background) [3]: 42 fold
Kd (Human CLEC12A-His [4]): 1.71 nM
koff (Human CLEC12A-His [4]): 0.00132 s⁻¹
kon (Human CLEC12A-His [4]): 775000 M⁻¹ s⁻¹
B2: AB0192 TriNKET (other)
chain: EVQLVESGGGVVQPGGSLRLSCAASGFTFNAFGMHWVRQAPGKCLEWVAFISSGSTSIYYANTVKGRFTISRDNSKNTLYLQMNSLRAEDTAVYYCARDGYPTGGAMDYWGQGTSVTVSSGGGGSGGGGSGGGGSGGGGSDIQMTQSPSSLSASVGDRVTITCKASQDIYNYLSWFQQKPGKAPKPLIYRANILVSGVPSRFSGSGSGQDYTFTISSLQPEDIATYYCLQFDAFPFTFGCGTKLEIKGSDKTHTCPPCPAPELLGGPSVFLFPPKPKDTLMISRTPEVTCVVVDVSHEDPEVKFNWYVDGVEVHNAKTKPREEQYNSTYRVVSVLTVLHQDWLNGKEYKCKVSNKALPAPIEKTISKAKGQPREPRVYTLPPCRDELTKNQVSLTCLVKGFYPSDIAVEWESNGQPENNYKTTPPVLVSDGSFTLYSKLTVDKSRWQQGNVFSCSVMHEALHNHYTQKSLSLSPG
heavy: EVQLVESGGGLVKPGGSLRLSCAASGFTFSSYSMNWVRQAPGKGLEWVSSISSSSSYIYYADSVKGRFTISRDNAKNSLYLQMNSLRAEDTAVYYCARGAPIGAAAGWFDPWGQGTLVTVSSASTKGPSVFPLAPSSKSTSGGTAALGCLVKDYFPEPVTVSWNSGALTSGVHTFPAVLQSSGLYSLSSVVTVPSSSLGTQTYICNVNHKPSNTKVDKKVEPKSCDKTHTCPPCPAPELLGGPSVFLFPPKPKDTLMISRTPEVTCVVVDVSHEDPEVKFNWYVDGVEVHNAKTKPREEQYNSTYRVVSVLTVLHQDWLNGKEYKCKVSNKALPAPIEKTISKAKGQPREPQVCTLPPSRDELTENQVSLTCLVKGFYPSDIAVEWESNGQPENNYKTTPPVLDSDGSFFLYSWLTVDKSRWQQGNVFSCSVMHEALHNHYTQKSLSLSPG
light: DIQMTQSPSSVSASVGDRVTITCRASQGISSWLAWYQQKPGKAPKLLIYAASSLQSGVPSRFSGSGSGTDFTLTISSLQPEDFATYYCQQGVSFPRTFGGGTKVEIKRTVAAPSVFIFPPSDEQLKSGTASVVCLLNNFYPREAKVQWKVDNALQSGNSQESVTEQDSKDSTYSLSSTLTLSKADYEKHKVYACEVTHQGLSSPVTKSFNRGEC
notes: the condition stands under assay; also called AB0192 Lot AB0192-005

Kd [5]: 1.2 nM and 1.19 nM
koff [5]: 0.000952 s⁻¹ and 0.000913 s⁻¹
kon [5]: 791000 M⁻¹ s⁻¹ and 768000 M⁻¹ s⁻¹
EC50 [6]: 2 nM
Max binding MFI [6]: 14700 MFI
Kd [7]: 1400 nM
Kd [8]: 1500 nM
B3: F3'-1602 TriNKET (other)
chain: QLQLQESGPGLVKPSETLSLTCTVSGFSLTNYGLHWIRQPPGKCLEWIGVIWSGGKTDYNPSLKSRVTISKDTSKNQFSLKLSSVQAADTAVYYCAKYDYDDSLDYWGQGTLVTVSSGGGGSGGGGSGGGGSGGGGSDIQMTQSPSSLSASVGDRVTITCHASQNINFWLSWYQQKPGKAPKLLIYEASNLHTGVPSRFSGSGSGTRFTLTISSLQPEDIATYYCQQSHSYPLTFGCGTKLEIKGSDKTHTCPPCPAPELLGGPSVFLFPPKPKDTLMISRTPEVTCVVVDVSHEDPEVKFNWYVDGVEVHNAKTKPREEQYNSTYRVVSVLTVLHQDWLNGKEYKCKVSNKALPAPIEKTISKAKGQPREPRVYTLPPCRDELTKNQVSLTCLVKGFYPSDIAVEWESNGQPENNYKTTPPVLVSDGSFTLYSKLTVDKSRWQQGNVFSCSVMHEALHNHYTQKSLSLSPG
heavy: EVQLVESGGGLVKPGGSLRLSCAASGFTFSSYSMNWVRQAPGKGLEWVSSISSSSSYIYYADSVKGRFTISRDNAKNSLYLQMNSLRAEDTAVYYCARGAPIGAAAGWFDPWGQGTLVTVSSASTKGPSVFPLAPSSKSTSGGTAALGCLVKDYFPEPVTVSWNSGALTSGVHTFPAVLQSSGLYSLSSVVTVPSSSLGTQTYICNVNHKPSNTKVDKKVEPKSCDKTHTCPPCPAPELLGGPSVFLFPPKPKDTLMISRTPEVTCVVVDVSHEDPEVKFNWYVDGVEVHNAKTKPREEQYNSTYRVVSVLTVLHQDWLNGKEYKCKVSNKALPAPIEKTISKAKGQPREPQVCTLPPSRDELTENQVSLTCLVKGFYPSDIAVEWESNGQPENNYKTTPPVLDSDGSFFLYSWLTVDKSRWQQGNVFSCSVMHEALHNHYTQKSLSLSPG
light: DIQMTQSPSSVSASVGDRVTITCRASQGISSWLAWYQQKPGKAPKLLIYAASSLQSGVPSRFSGSGSGTDFTLTISSLQPEDFATYYCQQGVSFPRTFGGGTKVEIKRTVAAPSVFIFPPSDEQLKSGTASVVCLLNNFYPREAKVQWKVDNALQSGNSQESVTEQDSKDSTYSLSSTLTLSKADYEKHKVYACEVTHQGLSSPVTKSFNRGEC
notes: CLEC12A scFv-Fc, NKG2D A49MI Fab-Fc, human IgG1 Fc; also called AB0237

Reference: US20220119534A1 (DRAGONFLY THERAPEUTICS, published 2022)
